From paper doi:10.1101/2022.10.23.513379 (bioRxiv, 2022)

Key:
[1] = target: T1, His-tagged wildtype SARS-CoV-2 RBD (BEI NR52309) (SARS-CoV-2, wildtype (Wuhan-Hu-1), UniProt P0DTC2); experiment: crystal structure
[2] = target: T1, His-tagged wildtype SARS-CoV-2 RBD (BEI …); experiment: BLI

Binder | binding result [1] | binding result [2]
80 Fab (Fab, V domains shown) VH: QVQLVQSGAEVKKPGSSVKVSCKASGGTFNRYAFSWVRQAPGQGLEWMGGIIPIFGTANYAQKFQGRVTITADESTSTAYMELSSLRSEDTAVYYCARSTRELPEVVDWYFDLWGRGTLVTVSS VL: not shown | binds | –
80 IgG (antibody, V domains shown) VH: QVQLVQSGAEVKKPGSSVKVSCKASGGTFNRYAFSWVRQAPGQGLEWMGGIIPIFGTANYAQKFQGRVTITADESTSTAYMELSSLRSEDTAVYYCARSTRELPEVVDWYFDLWGRGTLVTVSS VL: not shown | – | binds
80 MB (mono-specific Multabody of specificity 80) (complex) VH: QVQLVQSGAEVKKPGSSVKVSCKASGGTFNRYAFSWVRQAPGQGLEWMGGIIPIFGTANYAQKFQGRVTITADESTSTAYMELSSLRSEDTAVYYCARSTRELPEVVDWYFDLWGRGTLVTVSS VL: not shown | – | binds
2-7 MB (mono-specific Multabody of specificity 2-7) (complex) VH: QITLKESGPTLVKPTQTLTLTCTFSGFSLSTSGVGVGWIRQPPGKALEWLALIYWDDDKRYSPSLKSRLTITKDTSKNQVVLTMTNMDPVDTATYYCAHHKIERIFDYWGQGTLVTVSS VL: SALAQPASVSGSPGQSITISCTGTSSDVGAYNYVSWYQQHPGKAPKLMIYDVSKRPSGVSNRFSGSKSGNTASLTISGLQAEDEADYYCSSYTTSSTVFGGGTKLTVL | – | binds
2-7 IgG (antibody, V domains shown) VH: QITLKESGPTLVKPTQTLTLTCTFSGFSLSTSGVGVGWIRQPPGKALEWLALIYWDDDKRYSPSLKSRLTITKDTSKNQVVLTMTNMDPVDTATYYCAHHKIERIFDYWGQGTLVTVSS VL: SALAQPASVSGSPGQSITISCTGTSSDVGAYNYVSWYQQHPGKAPKLMIYDVSKRPSGVSNRFSGSKSGNTASLTISGLQAEDEADYYCSSYTTSSTVFGGGTKLTVL | – | binds
